Measurements as given in publication PMC3990580.
pKd: −log10 of the molar value.

Assays:
[1] = target: Q223R extracellular murine leptin receptor Fc (LepRec-Fc) chimera (murine) (UniProt P48356); experiment: SPR; BiaCore T200, CM5 chip; anti-mouse IgG1 amine-coupled (~2000 RU) captures LepRec-Fc from the concentrated supernatant (100-300 RU); leptin 1.25-60 nM as analyte; 25°C, HBS-EP buffer, 30 µl/min; 600 s association, 1000 s dissociation; global 1:1 Langmuir fit; mean of two experiments
[2] = target: WT extracellular murine leptin receptor Fc (LepRec-Fc) chimera (murine) (UniProt P48356); experiment: as above

pKd [1]: 10.07
koff [1]: 0.000147 s⁻¹
kon [1]: 1.75e+06 M⁻¹ s⁻¹
pKd [2]: 10.19
koff [2]: 0.000121 s⁻¹
kon [2]: 1.76e+06 M⁻¹ s⁻¹
Substance: Recombinant murine leptin (from UniProt P41160 22-167) (ligand)
